Experimental data as given in US20240010695A1 (ASHER BIOTHERAPEUTICS, published 2024).

Biological target: Wild type IL-10 dimer fused to xhCD8b (format E) (Homo sapiens (Human), UniProt P22301 19-178; P22301 19-178)
Assay: SPR 37 C; fusion captured via Fc, IL-10RA ECD analyte
Experimental: To determine the affinities with IL-10RA, antibody or fusion proteins were captured onto the CM4 sensor chip via their Fc by covalently anti-human Fc antibody (Southern Biotech, Catalog No. 2081-01). Protein was not captured on flow cell 1 to serve as a reference surface. In-house generated human IL-10RA ECD, diluted in HBS-P+ buffer supplemented with 1 g/L BSA, at concentrations of 8, 40, 200, 1000, and 5000 nM, or buffer was flowed over the surface-captured fusion protein for 2 minutes at 30 μL/min. Dissociation was monitored for 4-5 minutes, and the anti-hIgG-Fc surface was regenerated with three 30-seconds injections of 75 mM phosphoric acid between analysis cycles. Binding data were analyzed by Biacore® Evaluation Software version 3.2 using a 1:1 Langmuir with mass transport model or by steady-state affinity analysis.
As shown in Example 3, fusion proteins comprising CD8 antibodies and IL-10 monomer polypeptides selectively activated CD8+ T cells over monocytes and CD4+ T cells. […] Amino acid substitutions and the amino acid sequences of representative mutant monomer IL-10 polypeptides that were evaluated are shown in Table 4A. […] In all cases, the IL-10 polypeptide was expressed as a fusion protein, with the antibody binding domain specified in column 2, and the format shown in parentheses, based on the schematics depicted in FIG. 6.

Wild type IL-10 dimer fused to xhCD8b (format E), sequence (P22301 19-178 limits assumed, chain 1 of 2): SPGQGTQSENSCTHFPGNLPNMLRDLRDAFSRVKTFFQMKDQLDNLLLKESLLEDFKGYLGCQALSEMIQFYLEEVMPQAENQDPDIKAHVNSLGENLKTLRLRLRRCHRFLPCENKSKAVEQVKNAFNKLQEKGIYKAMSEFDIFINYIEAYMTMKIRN
Wild type IL-10 dimer fused to xhCD8b (format E), sequence (P22301 19-178 limits assumed, chain 2 of 2): as the sequence (P22301 19-178 limits assumed, chain 1 of 2) above

- Kd: 4.5 nM
B1: human IL-10RA ECD (receptor)
chain: HGTELPSPPSVWFEAEFFHHILHWTPIPNQSESTCYEVALLRYGIESWNSISNCSQTLSYDLTAVTLDLYHSNGYRARVRAVDGSRHSNWTVTNTRFSVDEVTLTVGSVNLEIHNGFILGKIQLPRPKMAPANDTYESIFSHFREYEIAIRKVPGNFTFTHKKVKHENFSLLTSGEVGEFCVQVKPSVASRSNKGMWSKEECISLTRQYFTVTN
notes: In-house generated ECD; A biotinylated form held the fusions on the chip in the IL-10RB assay
